Measured values from patent US20250027068.

molecular target: pooled human IgG (human IgG1, 2, 3 and 4)

Protein	Enzyme Activity Endpoint Assay (purified): Fab′2 [ng/µL]	Enzyme Activity Endpoint Assay (purified): Fc [ng/µL]	Enzyme Activity Endpoint Assay (purified): IgG [ng/µL]	Enzyme Activity Endpoint Assay (purified): scIgG [ng/µL]
PRT-651 (protein) MQITSVWTKGVTPLTPEQFRYNNEDVIHAPYLAHQGWYDITKAFDGKDNLLCGAATAGNMLHWWFDQNKTEIEAYLSKHPEKQKIIFNNQELFDLKAAIDTKDSQTNSQLFNYFRDKAFGNLSARQLGVMPDLVLDMFINGYYLNVGKTQSTDVNRPYQTRDKRGGIFDAVFTRGDQTTLLTARHDLKNKGLNDISTIIKQELTEGRALALSHTYANVSISHVINLWGADFNAEGNLEAIYVTDSDANASIGMKKYFVGINAHGHVAISAKKIEGENIGAQVLGLFTLSSGKDIWQKLSLEHHHHHH	542	367	168	359
PRT-610 (protein) MQITSVWTKGVTPLTPEQFRYNNEDVIHAPYLAHQGWYDITKAFDGKDNLLCGAATAGNMLHWWFDQNKTEIEAYLSKHPEKQKIIFNNQELFDLKAAIDTKDSQTNSQLFNYFRDKAFPNLSARQLGVMPDLVLDMFINGYYLNVFKTQSTDVNRPYQDKDKRGGIFDAVFTRGDQTTLLTARHDLKNKGLNDISTIIKQELTEGRALALSHTYANVSISHVINLWGADFNAEGNLEAIYVTDSDANASIGMKKYYVGINAHGHVAISAYKIEGENIGAQVLGLFTLSSGKDIWQKLSLEHHHHHH	688	381	0	0
PRT-611 (protein) MQITSVWTKGVTPLTPEQFRYNNEDVIHAPYLAHQGWYDITKAFDGKDNLLCGAATAGNMLHWWFDQNKTEIEAYLSKHPEKQKIIFNNQELFDLKAAIDTKDSQTNSQLFNYFRDKAFPNLSARQLGVMPDLVLDMFINGYYLNVFKTQSTDVNRPYQDKDKRGGIFDAVFTRGDQTTLLTARYDLYNKGLNDISTIIKQELTEGRALALSHTYANVSISHVINLWGADFNAEGNLEAIYVTDSDANASIGMKKYFVGINAHGHVAISAKKIEGENIGAQVLGLFTLSSGKDIWQKLSLEHHHHHH	924	490	0	0
PRT-660 (protein) MQITSVWTKGVTPLTPEQFRYNNEDVIHAPYLAHQGWYDITKAFDGKDNLLCGAATAGNMLHWWFDQNKTEIEAYLSKHPEKQKIIFNNQELFDLRKAINTKDDQKESALFNYFRKKAFPNLSARQLGVMPDLVLDMFINGYYLNVFKTQSTDVNRPYQDKDKRGGIFDAVFTRGDQTTLLTARHDLKNKGLNDISTIIKQELTEGRALALSHTYANVSISHVINLWGADFNAEGNLEAIYVTDSDANASIGMKKYFVGINAHGHVAISAKKIEGENIGAQVLGLFTLSSGKDIWQKLSLEHHHHHH	161	320	105	668
PRT-605 (protein) MQITSVWTKGVTPLTPEQFRYNNEDVIHAPYLAHQGWYDITKAFDGKDNLLCGAATAGNMLHWWFEQNKTEIEAYLSKYGDTQKIIFNNQELFDLKAAIDTKDSQTNSQLFNYFRDKAFPNLSARQLGVMPDLVLDMFINGYYLNVFKTQSTDVNRPYQDKDKRGGIFDAVFTRGDQTTLLTARHDLKNKGLNDISTIIKQELTEGRALALSHTYANVSISHVINLWGADFNAEGNLEAIYVTDSDANASIGMKKYFVGINAHGHVAISAKKIEGENIGAQVLGLFTLSSGKEIWQKLSLEHHHHHH	617	357	100	157
PRT-641 (protein) MQITSVWTKGVTPLTPEQFRYNNEDVIHAPYLAHQGWYDITKTMNGKDDLLCGAATAGNMLHWWFDQNKTEIEAYLSKHPEKQKIIFNNQELFDLKAAIDTKDSQTNSQLFNYFRDKAFPNLSARQRGVMPDLVLDMFINGYYLNVFKTQSTDVNRPYQDKDKRGGIFDAVFTRGDQTTLLTARHDLKNKGLNDISTIIKQELTEGRALALSHTYANVSISHVINLWGADFNAEGNLEAIYVTDSDARENIGMKKYFVGINAHGHVAISAKKIEGENIGAQVLGLFTLSSGKDIWQKLSLEHHHHHH	975	336	0	0
PRT-684 (protein) MQITSVWTKGVTPLTPEQFTNNNEDVIHAPYLANQGWYDITKTFNGKDNLLCGAATAGNMLHWWFDQNKEEIEAYLKKHPEKQKIIFNNQELFDLKKAIDTKDSQTNSALFNYFRDKAFPNLSARQLGVMPDLVLDMFINGYYLNVFKTQSTDVNRPYQTKDKRGGIFDAVFTRGDQTTLLTARHDLKNKGLNEISDIIKQELTEGKALALSHTYANVSISHVINLWGADFNAEGNLIAIYVTDSDANASIGMKKYFVGVNSHGKVAISAKKIEGENIGAQVLGLFTLSSGQDIWQKLSLEHHHHHH	1060	542	0	0
PRT-690 (protein) MQITSVWTKGVTPPTPEQFRYNNEDVIHAPYLANQGWYDITKTFNGKDNLLCGAATAGNMLHWWFDQNKTEIEAYLSKYPEKQKIIFNNQELFDLRAAINTKDSQTNSQLFNYFRDKAFPNLSARQLGVMPDLVLDMFINGYYLNVFKTQSTDVNRPYQDKDKRGGIFDAVFNRGDQTTLLTARHDLKNKTLNDISTLIKQELSSGKALALSHTYANVSISHVINLWGADFNAEGNLEAIYVTDSDANSNIGMKKYKVGVNAHGKVAISAKKIEGENIGAQVLGLFTLSSGKDIWQKLSLEHHHHHH	966	482	0	0
PRT-603 (protein) MQITTVWTKGVTPLTPEQFRYNNEDVIHAPYLAHQGWYDITKAFDGKDNLLCGAATAGNMLHWWFDQNKTEIEAYLSKHPEKQKIIFNNQELFDLKAAIDTKDSQTNSQLFNYFRDKAFPNLSARQLGVMPDLVLDMFINGYYLNVFKTQSTDVNRPYQDKDKRGGIFDAVFTRGDQTTLLTARHDLKNGGLNDISTIIKQELQSGRALALSHTYANVSISHVINLWGADFNAEGNLEAIYVTDSDANASIGMKKYFVGINAHGHVAISAKKIEGENIGAQVLGLFTLSSGKDIWQKLSLEHHHHHH	965	486	0	0
PRT-694 (protein) MTITSVWTKGVTPPTPEDFRYNNEDVLHAPYVANQGWYDITKTFDGKDNLLCGAATAGNMLHWWFDQNKEEIERYLKKYPEKQKIIFNNQELFDVRAAINTKDSQTNSKLFNYFRDKAFPNLSARQLGVMPDLVLDMFINGYYLNLGKTQSTDVNRPYQDKDKRGGIFDAVFNRGDQTTLLTARHDLKNKGLNEISDLIKQELSSGKALALSHTYANVRINHVINLWGADFDAEGNLIAIYVTDSDANSNIGMKKYKVGVNANGKVAISAKKIEGDNIGAQVLGLFTLSTGQDIWQKLSLEHHHHHH	541	0	1030	15
PRT-564 (protein) MANQEIRYSEATPSHITSVWTKGVTPPTQFIQNEDVLHAPYIANQGWYDITKTFNGKDDLLCGAATAGNMLHWWFDQNKTQIENYLKKHPEKQKINFNGEQMFDVKEAIDTKDSQTDSALFSYFKDKAFPYLSTKHLGVFPDHVIDMFINGYRLSLTNHGPTPVKRQTKDPRGGIFDAVFTRGDQSKLLTSRHDFKEKTLNEISQLIKQELTEGKALGLSHTYANVRINHVINLWGADFNAEGNLEAIYVTDSDSNASIGMKKYYVGVNAAGKVAISAKEIEGDNIGAQVLGLFTLSTGQDIWQQTNLEHHHHHH	651	351	0	0
PRT-373 (protein) MSQTEDSESLQRLRDIEDFQAEKEKQNVVYTKWLDGVDVKDHDFRKIVDGNSAYYATPLLNGRGWYDINKDFNRDNDKCAAAVAANMFHYWLDRNRDNVDRFLRQNPEKHGIIELPDGQLKLSDFLNTYESDDGYRDKSKLFDFISENFNGPVWTDKLLDNYINGYAYNSKYGRTIEDSTKNTSKINFFKEVFNEKILTNNHSIRNQNEFSVLLIEALYTGKAIGLSYGPAGLRHGLGHIISVWGADLDADGNVVAIYVTDSDDKKLTIGDERVGLKRYKISTDDEGRLRLTAYEETHNTGGQVRGLWTLDTGKQAWADYFDKTEQTGTDQAEQ	392	295	38	281
PRT-377 (protein) MVTSVWTKGVTPPTNFTYGEDVLHAPYVANQGWYDITKTFNGKDDLLCGAATAGNMLHWWFDQNKEQIENYLKKHPEKQKINFNGEQMFDVKEAIDTKDSQLDSKLFEYFLEKAFPYLSTKHLGVFPDHVIDMFINGYRLSLTNHGPTPVKRGSKDPRGGIFDAVFTRGDQSKLLTNRHDFKEKTLKEISDLIKQELTEGKALGISHTYANVRINHVINLWGADFDAEGNLEAIYVTDSDSNASIGMKKYFVGVNSNGKVAISAKEIEEDNIGAQVLGLFTLSTGQDIWNQTN	572	348	0	242
PRT-430 (protein) MSQTEDSESLQRLRDIEDFQAEKKKQNVVYTKWLDGVDVKDHDFRKIVDGNSAYYATPLLNGRGFYDINKDFNRDSDKCAAAVAANMFHYWLDRNRDNVDRFLRQNPEKHGIIELPDGQLKLSDFLNTYESDDGYRDKSKLFDFISNNFNGPVWTDKLLDNYINGYAYNYKYGRTIEDPTKNTSKINFFKEVFNEKILTNNHSIRNQNEFSVLLSEALYTGKAIGLSYGPAGLRHSLGHIISVWGADLDADGNVVAIYVTDSDDKKLTIGDERVGLKRYKISTDDEGRLRLTAYEETHNTGGQIRGLWTLDTGKQAWADYFDKTEQTGTDQAEQ	492	330	0	324
